Reference: patent US20180245121A1
pKd: −log10 of the molar value.

Experiments:
[1] = target: FKBP-GDH(155-454AA) (Acinetobacter calcoaceticus) (UniProt P62942); assay: cell-based or functional assay
[2] = target: FKBP-GDH(155-454AA) (Acinetobacter calcoaceticus) (UniProt P62942); assay: self-reconstitution of split GDH fragments without ligand; method not described (GDH activity assay implied)

UniProt P62942, sequence (P62942 2-108, tags or fused parts left off): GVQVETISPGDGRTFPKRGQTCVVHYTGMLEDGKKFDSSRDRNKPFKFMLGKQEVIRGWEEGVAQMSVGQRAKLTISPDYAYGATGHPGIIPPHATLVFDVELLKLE

GDH activity; observed rates on rapamycin titration fitted to a quadratic equation [1]: 11 nM
pKd [2]: 7.00 to 7.30
Substance: GDH(1-153AA)-FRB (from UniProt P42345 2021-2113)
